Results on two proteins are retold here after article doi:10.1101/2022.02.15.480489 (bioRxiv, 2022).

The series deals with the molecule itself. Put plainly: fluorescence correlation spectroscopy.

B1: Ana2-mNG (Ana2 tagged with monomeric NeonGreen at the C-terminus, CRISPR/Cas9 knock-in at the endogenous locus) (natural protein)
chain: MFVPETEDMLPRLAPRPSAAVPMGHTNEIIGPTVPEVSILFGQPPQDPQMQPQQPNHAHQESSPRAAPTFASWKKQMLPRVNFSPILATELGPRTAPSSNSPCSSKEYQVMPRDRNYASDAQQTTNHMNCNAGGYNAEPKQQAYQSRRLSSSSNADVLTICAGTQTDPFNPSPPRKSLPQVVYSDIDVSNLANKSDLAALVSLVESVRHEQQQLRNLCEMILEQQQRAKPEAISKASSTTGTQCDILTTNQAGRRLSPIMQDYIAEEEEPLPPPQARVIPQFPSPRPHPPIAQSTGYRANTPQAKRIPQLAKPNTEKSMVMNELALKYLRQPVDELMKDMRLGASPKSPNPEPLRPIDNIGHAQSPNDISNASYKYLKKYRLLPEEQLEPVCPQSPMAATAPSPHIQLDLENIRNQPKLL
With B1, the stoichiometry N (commonly the number of molecules, sites or subunits per partner or assembly) was around 2.

B2: mNG-Ana2 (Ana2 tagged with monomeric NeonGreen at the N-terminus, CRISPR/Cas9 knock-in at the endogenous locus) (natural protein)
chain: MFVPETEDMLPRLAPRPSAAVPMGHTNEIIGPTVPEVSILFGQPPQDPQMQPQQPNHAHQESSPRAAPTFASWKKQMLPRVNFSPILATELGPRTAPSSNSPCSSKEYQVMPRDRNYASDAQQTTNHMNCNAGGYNAEPKQQAYQSRRLSSSSNADVLTICAGTQTDPFNPSPPRKSLPQVVYSDIDVSNLANKSDLAALVSLVESVRHEQQQLRNLCEMILEQQQRAKPEAISKASSTTGTQCDILTTNQAGRRLSPIMQDYIAEEEEPLPPPQARVIPQFPSPRPHPPIAQSTGYRANTPQAKRIPQLAKPNTEKSMVMNELALKYLRQPVDELMKDMRLGASPKSPNPEPLRPIDNIGHAQSPNDISNASYKYLKKYRLLPEEQLEPVCPQSPMAATAPSPHIQLDLENIRNQPKLL
Take B2: the “stoichiometry N” value was around 2.
